Experimental data taken from patent US20150353909.

T1: HA3-RUB-GST, Q9SHE7
T1 chain: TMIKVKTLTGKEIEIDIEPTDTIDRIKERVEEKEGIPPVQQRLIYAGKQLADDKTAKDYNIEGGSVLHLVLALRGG

B1: GST-OTU10 (protein)
chain: MVSHEENTSIVEWFLGPHPYTYPPYGIEMIHEDDEVAVAHHHHHHQSGEYYREYEDHRSSDVDNDEIIARTLQDDFLQLEIAESNDYSHQNQQQQHQQEGYTNNYSNNNNGYAWNDQSPAVDYSSEWIGNDNDQDGRSDDSVNVFSCSSPSDTDEYVYSWESDQCDADGEFGRRLNQMVPIPYIPKINGEIPPEEEAVSDHERLRNRLEMFDFTEVKVPGDGNCQFRALADQLYKTADRHKHVRRQIVKQLKSRPDSYQGYVPMDFSDYLRKMSRSGEWGDHVTLQAAADAYRVKIVVLTSFKDTCYIEILPTSQESKGVIFLSFWAEVHYNAIYLNRDTSETELQRKRKWWRFGN
B2: His-tagged OTU9 (protein)
chain: MGYEPDPDALRWGLHDLEVCTLTNAGSCSSVTRYESGGGGTQGYVREGYNQPVTGYVDNDAVIAQFYQDELSRVARAEASGINSLSPTSVVAQDWPHPHQGQENQGEAIDITQESDILHNHNGNMEDKNVARIRFEGGQSSPSRDDDSVCSVEIEEESWSEVGKRLNQMIPIAHVPKINGELPSEDEQISDHERLFQRLQLYGLVENKIEGDGNCQFRSLSDQLYRSPEHHNFVREQVVNQLAYNREIYEGYVPMAYNDYLKAMKRNGEWGDHVTLQAAADLFGVRMFVITSFKDTCYIEILPHFQKSNRLICLSFWAEVHYNSIYPEGELPIPEGKKKKKYWVF
B3: His-tagged OTU7a (protein)
chain: MAKTKQQKSKPKKQPHQKQGKDCDLSQFRAQLDALGLKIIQVTADGNCFFRAIADQLEGNEDEHNKYRNMIVLYIVKNREMFEPFIEDDVPFEDYCKTMDDDGTWAGNMELQAASLVTRSNICIHRNMSPRWYIRNFEDTRTRMIHLSYHDGEHYNSVRSKEDACGGPARPVVIEADAKVSAASKQAKATESKSKNKADKCHVNAGAIKVVMSGSCCDNTEKAEQVLLQVNGDVDAAIEFLIADQGMESLTENDTETASASDTINPKHASDSPMENTEQAREELIEEESASGNNSETVQAKCTTQTDDKKIPRNKTCPCGSKKKYKSCCGTATGRSSVKLLVSQTMESKKGRKNLRRGTSNEVEANAPDVGALCI

How the values were obtained:
HA3-RUB-GST, Q9SHE7 = target: T1, HA3-RUB-GST, Q9SHE7
[1] = target: K48-tetraubiquitin chains, P0CG48
K48-tetraubiquitin chains, P0CG48, sequence (P0CG48 whole entry, looked up): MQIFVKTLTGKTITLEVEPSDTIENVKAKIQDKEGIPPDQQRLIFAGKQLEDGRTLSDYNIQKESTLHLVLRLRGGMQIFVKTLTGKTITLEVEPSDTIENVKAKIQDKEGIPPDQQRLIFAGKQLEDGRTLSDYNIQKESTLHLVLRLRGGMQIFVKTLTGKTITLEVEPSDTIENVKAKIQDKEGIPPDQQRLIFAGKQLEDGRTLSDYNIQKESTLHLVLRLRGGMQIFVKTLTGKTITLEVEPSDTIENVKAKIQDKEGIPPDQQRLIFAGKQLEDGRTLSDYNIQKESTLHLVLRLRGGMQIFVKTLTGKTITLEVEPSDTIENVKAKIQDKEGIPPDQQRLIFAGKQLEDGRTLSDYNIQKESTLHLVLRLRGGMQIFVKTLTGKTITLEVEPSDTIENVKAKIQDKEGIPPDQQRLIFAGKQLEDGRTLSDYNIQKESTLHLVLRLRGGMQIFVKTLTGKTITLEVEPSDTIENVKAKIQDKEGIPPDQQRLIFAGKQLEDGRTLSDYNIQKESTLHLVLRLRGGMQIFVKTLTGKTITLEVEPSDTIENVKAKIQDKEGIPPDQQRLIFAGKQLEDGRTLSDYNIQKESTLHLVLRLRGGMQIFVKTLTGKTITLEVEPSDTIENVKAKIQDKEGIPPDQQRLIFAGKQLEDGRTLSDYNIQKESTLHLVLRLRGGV

[2] = target: purified recombinant linear UB dimers
[3] = target: purified recombinant linear UB tetramers
[4] = target: K63-tetraubiquitin chains, P0CG48
K63-tetraubiquitin chains, P0CG48, sequence (P0CG48 whole entry, looked up): as above

[5] = target: purified recombinant linear UB trimers
[6] = target: HA3-UBQ-GST [GST: P08515]

Protein | in vitro deubiquitylation activity (HA3-RUB-GST, Q9SHE7) | in vitro deubiquitylation activity [1] | in vitro deubiquitylation activity [2] | in vitro deubiquitylation activity (HA3-SUMO-GST, P55852) | in vitro deubiquitylation activity [3] | in vitro deubiquitylation activity [4] | in vitro deubiquitylation activity [5] | in vitro deubiquitylation activity [6]
B1 | + | ++ | - | - | - | +++ | - | ++
B2 | + | ++ | - | - | - | ++ | - | ++
B3 | + | + | - | - | - | ++ | - | ++
